Assay results from patent US20240148841.

Molecular target: human IgG (of human serum; IgG against AAV8 in AAV8 positive human serum pools CP16 and P1)

B1: IdeSORK (Xork) IgG protease (protein)
chain: LSKRKLLKKIEKKDTSSVLTQKKQTKTLWADGVQVDDKDFKPSTENFGTNYLAAEYGIGKGYYDINKKFDGTDDDLCSGVVAANQLHWWLDRNKDYIEKYRQQSKDNGVTIGNTDIFELNKLHDEDQSNFFDFIKKSFGNKFLQPERLLNMYINGYGYLTSQDKAKTSQPSPSKLNFFQKVFKNNLLTDKTPINDIDEFSSQTKNALQNHKVLAVSFASIKNRGLGHVVTVWGADFDENGKVVALYVTDSDDRSKNIGNAKLGMKKLRIEVSAQDSSTIKLTGFEDKNSGGSLRHLYSLSTGEQIWKKYFEETEKERIRLEEEADKAKLEQDRIQKEAEEKLALEKAEKERIRLEEEADKAKLEQDRIQKEAEEKLALEKAEKERIRLEEEADKAKLEQDRIQKEAEEKLALEKAEKERIRLEEEADKAKLEQDRIQKEAEEKLALEKAEKERIRLEEEAAKAKLEQEKQIATAPQPDKKQENTTSEQEKPAPTELPPLVNKADETETPRETAPDQTPSATNTFRKILPKMNAVSQFFSQLMGTIQIVFAFILKIFK
cleavage of human IgG in vitro: Xork cleaves human IgG in vitro with the same specificity and mechanism as IdeS
